According to the supplement of paper PMC6757056:
± gives the standard deviation of the averaged measurements.

B1: library; a variant is named by its letters at N, in order (parent)
chain: GCUGUCACCGGAAUACCAGCAUCGUCUUGAUGCCCUUGGAAGUCCGGUCUGAUGAGUCCNNNNNGGACGAAACAGC

Tests used:
theophylline [1] = variants of: B1; assay: FACS-Seq fitted mean relative fluorescence mCherry/BFP without ligand (log10 relative fluorescence); higher = higher reporter protein expression; settings: HEK293T, ligand present: no
In short: (§1)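 HEK293T libraries were lentivirally transduced with an mCherry reporter carrying the ribozyme switch and an EF1α-BFP marker, enriched, and incubated for 48 h with or without ligand before sorting into 6 bins by mCherry/BFP. Genomic DNA from each bin was PCR-amplified, barcoded and sequenced on MiSeq. Fluorescence is the fitted normal mean of the bin counts. The fit used log10(mCherry/BFP), and means were scaled to five spiked-in control ribozymes.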

theophylline [2] = variants of: B1; assay: normalized RNA/DNA level with ligand (relative to sTRSVctl = 100) (log10 (% of sTRSVctl)); higher = less ribozyme self-cleavage, higher mRNA level; settings: ligand concentration (+) RNA-Seq: 5 mM, HEK293T, reporter: mCherry (pCS4076), ligand present: yes
In short: (§2)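 HEK293T cells received ligand, where used, 1 h before being transfected with 4 µg per 6-well well of library plasmids encoding reporter-linked ribozyme switches. After 72 h, RNA was extracted with EDTA and sequenced. RNA level was derived from RNA reads per DNA read, normalized to a spiked-in non-cleaving sequence or the top sequences, then scaled and log-transformed. Values were ×100 then log10, the top set was 25 sequences, and the minimum was 100 DNA reads.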

theophylline [3] = variants of: B1; assay: normalized RNA/DNA level without ligand (relative to sTRSVctl = 100) (log10 (% of sTRSVctl)); higher = less ribozyme self-cleavage, higher mRNA level; settings: HEK293T, reporter: mCherry (pCS4076), ligand present: no
In short: as §2

theophylline [4] = variants of: B1; assay: FACS-Seq fitted mean relative fluorescence mCherry/BFP with ligand (log10 relative fluorescence); ligand concentration (+) FACS-Seq: 1 mM; higher = higher reporter protein expression; settings: HEK293T, ligand present: yes
In short: as §1

| Variant | FACS-Seq fitted mean (log10) (theophylline [1]) | normalized RNA/DNA level with ligand (log10) (theophylline [2]) | normalized RNA/DNA level without ligand (log10) (theophylline [3]) | FACS-Seq fitted mean (log10) (theophylline [4]) |
| --- | --- | --- | --- | --- |
| ACUCU | -0.437 ± 0.075 | 2.01 ± 0.052 | 1.93 ± 0.075 | -0.125 ± 0.13 |
| ACUCC | 0.767 ± 0.21 | 2 ± 0.068 | 1.96 ± 0.026 | 0.658 ± 0.024 |
| ACUCA | 0.648 ± 0.038 | 1.97 ± 0.14 | 1.92 ± 0.076 | 0.659 ± 0.088 |
| ACUCG | 1.06 ± 0.14 | 1.95 ± 0.2 | 1.89 ± 0.11 | 1.17 ± 0.035 |
| CCUCC | 0.993 ± 0.035 | 2.092 ± 0.0026 | 2.0411 ± 0.0014 | 0.89 ± 0.046 |
| CCUCU | 0.198 ± 0.07 | 1.93 ± 0.039 | 1.87 ± 0.036 | 0.0585 ± 0.1 |
| CGAGA | 0.788 ± 0.0071 | 1.93 ± 0.022 | 1.58 ± 0.18 | 0.841 ± 0.032 |
| CGAGU | 0.892 ± 0.093 | 1.992 ± 0.01 | 1.9 ± 0.02 | 0.873 ± 0.12 |
| CGAGC | 0.548 ± 0.016 | 2.013 ± 0.0077 | 1.94 ± 0.042 | 0.508 ± 0.037 |
| UCUGA | 0.9 ± 0.11 | 2.04 ± 0.035 | 1.89 ± 0.056 | 0.983 ± 0.1 |
| UCUGG | 0.976 ± 0.062 | 2.057 ± 0.0087 | 2.01 ± 0.064 | 1.012 ± 0.0062 |
| UCUGC | 0.365 ± 0.16 | 1.98 ± 0.096 | 2.02 ± 0.032 | 0.642 ± 0.034 |
| UCUGU | 0.6475 ± 0.0019 | 2.099 ± 0.014 | 2.01 ± 0.1 | 0.6442 ± 0.0018 |
| UGAAC | 1.07 ± 0.11 | 1.97 ± 0.06 | 1.84 ± 0.036 | 0.983 ± 0.022 |
| UGAAU | 0.471 ± 0.056 | 1.94 ± 0.057 | 1.77 ± 0.15 | 0.732 ± 0.045 |
| CCGUA | 0.864 ± 0.056 | 2 ± 0.099 | 1.65 ± 0.12 | 0.992 ± 0.043 |
| CCGUC | 0.556 ± 0.018 | 2.11 ± 0.037 | 1.93 ± 0.073 | 0.413 ± 0.034 |
| UCGGU | 0.776 ± 0.2 | 2.084 ± 0.0052 | 1.8 ± 0.16 | 0.68 ± 0.021 |
| CGAAA | 0.0755 ± 0.05 | 1.94 ± 0.023 | 1.31 ± 0.092 | 0.587 ± 0.042 |
| CGAAC | 0.992 ± 0.11 | 1.96 ± 0.076 | 1.72 ± 0.026 | 1.02 ± 0.089 |
| CGAAU | 0.071 ± 0.019 | 1.929 ± 0.0065 | 1.43 ± 0.076 | 0.306 ± 0.0069 |
| UCUCC | 0.732 ± 0.037 | 1.93 ± 0.04 | 1.95 ± 0.023 | 0.7862 ± 0.0054 |
| UGAGC | 1.21 ± 0.082 | 1.9256 ± 8.8e-05 | 1.98 ± 0.13 | 1.24 ± 0.12 |
| UGAGU | 0.6996 ± 0.0034 | 2.02 ± 0.17 | 1.86 ± 0.12 | 0.676 ± 0.013 |

| Variant | FACS-Seq fitted mean (log10) (theophylline [1]) | normalized RNA/DNA level with ligand (log10) (theophylline [2]) | normalized RNA/DNA level without ligand (log10) (theophylline [3]) | FACS-Seq fitted mean (log10) (theophylline [4]) |
| --- | --- | --- | --- | --- |
| UGAGA | 0.307 ± 0.012 | 1.922 ± 0.0069 | 1.5 ± 0.13 | 0.709 ± 0.041 |
| CGACA | 0.409 ± 0.006 | 2.012 ± 0.02 | 1.45 ± 0.061 | 0.769 ± 0.0091 |
| CGACU | 0.265 ± 0.1 | 2 ± 0.031 | 1.7 ± 0.14 | 0.5286 ± 0.0038 |
| UCUAA | 0.476 ± 0.055 | 2.03 ± 0.14 | 1.68 ± 0.095 | 0.588 ± 0.039 |
| UCUAU | 0.822 ± 0.091 | 2.051 ± 0.0076 | 1.867 ± 0.015 | 0.994 ± 0.05 |
| AGAGU | 0.387 ± 0.049 | 2.006 ± 0.008 | 1.58 ± 0.045 | 0.442 ± 0.022 |
| AGAGC | 0.629 ± 0.05 | 1.89 ± 0.12 | 1.81 ± 0.027 | 0.813 ± 0.051 |
| AGAGG | 0.93 ± 0.038 | 1.956 ± 0.018 | 1.8 ± 0.11 | 0.966 ± 0.08 |
| AGAGA | 0.056 ± 0.00013 | 1.952 ± 0.0099 | 1.28 ± 0.092 | 0.603 ± 0.011 |
| AGAUA | 0.67126 ± 0.00023 | 2.01 ± 0.027 | 1.61 ± 0.11 | 0.73474 ± 0.00057 |
| CGAUA | 0.099 ± 0.017 | 1.946 ± 0.014 | 1.21 ± 0.36 | 0.491 ± 0.0076 |
| CGAUC | 0.533 ± 0.1 | 1.927 ± 0.016 | 1.84 ± 0.089 | 0.495 ± 0.065 |
| UGACA | 0.298 ± 0.03 | 1.93 ± 0.051 | 1.52 ± 0.048 | 0.527 ± 0.05 |
| UGACU | 1.21 ± 0.077 | 1.9948 ± 0.0009 | 1.87 ± 0.022 | 1.22 ± 0.12 |
| UGACG | 0.444 ± 0.13 | 1.977 ± 0.0053 | 1.89 ± 0.031 | 0.53 ± 0.076 |
| ACUGA | 0.423 ± 0.012 | 1.96 ± 0.19 | 1.68 ± 0.18 | 0.613 ± 0.023 |
| ACUGU | 0.698 ± 0.1 | 2.027 ± 0.011 | 1.89 ± 0.087 | 0.626 ± 0.07 |
| ACUGC | 0.883 ± 0.038 | 2.01 ± 0.031 | 1.95 ± 0.058 | 0.793 ± 0.067 |
| ACUGG | 1 ± 0.065 | 2.05 ± 0.12 | 1.91 ± 0.091 | 0.915 ± 0.066 |
| ACUAC | 0.929 ± 0.041 | 1.98 ± 0.093 | 1.98 ± 0.084 | 0.984 ± 0.13 |
| ACUAG | 1.14 ± 0.18 | 2 ± 0.067 | 2.01 ± 0.043 | 1.08 ± 0.11 |
| ACUAU | 0.418 ± 0.065 | 1.982 ± 0.019 | 1.84 ± 0.13 | 0.461 ± 0.041 |
| ACUAA | 0.266 ± 0.016 | 2.002 ± 0.01 | 1.65 ± 0.2 | 0.391 ± 0.0057 |
| ACUUA | 0.5998 ± 0.0045 | 2.05 ± 0.037 | 1.78 ± 0.032 | 0.66 ± 0.015 |

| Variant | FACS-Seq fitted mean (log10) (theophylline [1]) | normalized RNA/DNA level with ligand (log10) (theophylline [2]) | normalized RNA/DNA level without ligand (log10) (theophylline [3]) | FACS-Seq fitted mean (log10) (theophylline [4]) |
| --- | --- | --- | --- | --- |
| ACUUU | 0.872 ± 0.15 | 2.012 ± 0.0039 | 1.89 ± 0.022 | 0.813 ± 0.11 |
| CCUUA | 0.654 ± 0.02 | 1.992 ± 0.0039 | 1.73 ± 0.1 | 0.707 ± 0.035 |
| CCUUU | 0.664 ± 0.036 | 2.046 ± 0.019 | 1.85 ± 0.039 | 0.81 ± 0.074 |
| ACGGU | 0.778 ± 0.062 | 1.89 ± 0.13 | 1.7 ± 0.095 | 1.004 ± 0.0021 |
| CCUGA | 0.9447 ± 0.0047 | 2.02 ± 0.028 | 1.92 ± 0.16 | 0.904 ± 0.0082 |
| CCUGC | 0.976 ± 0.012 | 2.02 ± 0.034 | 2.09 ± 0.054 | 0.899 ± 0.054 |
| CCGGC | 0.695 ± 0.065 | 2 ± 0.13 | 1.97 ± 0.044 | 0.721 ± 0.011 |
| CCGGU | 0.937 ± 0.27 | 1.97 ± 0.064 | 1.84 ± 0.064 | 0.944 ± 0.14 |
| AGACA | 0.0301 ± 0.062 | 1.87 ± 0.04 | 1.72 ± 0.031 | 0.35727 ± 0.0003 |
| AGACG | 0.74 ± 0.1 | 2.01 ± 0.082 | 1.89 ± 0.021 | 0.863 ± 0.018 |
| UGAUC | 0.156 ± 0.012 | 1.88 ± 0.045 | 1.91 ± 0.099 | 0.331 ± 0.012 |
| UGAUA | 0.3741 ± 0.0021 | 1.955 ± 0.0019 | 1.42 ± 0.17 | 0.789 ± 0.084 |
| UCUUU | 0.989 ± 0.015 | 2.019 ± 0.0067 | 1.86 ± 0.14 | 1.04 ± 0.1 |
| UCUUG | 0.933 ± 0.1 | 1.94 ± 0.18 | 1.94 ± 0.037 | 1.01 ± 0.025 |
| ACGUA | 0.721 ± 0.11 | 2.011 ± 0.017 | 1.62 ± 0.19 | 0.9207 ± 0.0039 |
| ACGUG | 0.7349 ± 0.0044 | 1.99 ± 0.14 | 1.76 ± 0.033 | 0.974 ± 0.16 |
| ACGUU | 0.575 ± 0.11 | 2.05 ± 0.044 | 1.79 ± 0.042 | 0.657 ± 0.051 |
| ACGUC | 1.11 ± 0.098 | 1.99 ± 0.031 | 1.91 ± 0.038 | 1.1245 ± 0.0011 |
| CCUAA | 0.523 ± 0.071 | 1.98 ± 0.04 | 1.71 ± 0.13 | 0.725 ± 0.073 |
| CCUAU | 0.969 ± 0.015 | 2.06 ± 0.025 | 1.867 ± 0.0061 | 1.05 ± 0.031 |
| CCUAC | 0.87 ± 0.071 | 2.01 ± 0.038 | 1.99 ± 0.072 | 0.871 ± 0.066 |
| AGAAC | 0.387 ± 0.005 | 1.9164 ± 0.00023 | 1.78 ± 0.12 | 0.507 ± 0.016 |
| AGAAG | 0.448 ± 0.033 | 1.93 ± 0.025 | 1.61 ± 0.17 | 0.576 ± 0.014 |
| AGAAA | -0.278 ± 0.17 | 1.853 ± 0.0095 | 1.12 ± 0.042 | 0.515 ± 0.022 |
